Results reported in the RNAGym collection of RNA variant scans (doi:10.1073/pnas.2313332121).

B1: TPR t1 (parent)
chain: GACCAAUCUGCCCUCAGAGCUCGAGAACAUCUUCGGAUGCAGAGGAGGCAGGCUUCGGUGGCGCGAUAGCGCCAACGUCCUCAACCUCCAAUGCAUCCCACCACAUGAUGAUGCCUGAAGAGCCUUGGUUUUUUG

Variants of: B1
Experiment: polymerase ribozyme fitness, log enrichment relative to wild type (log ratio); higher = more active; in vitro selection for triplet polymerase activity
Summary of the method: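 Mutant libraries for each subunit of a heterodimeric triplet polymerase ribozyme were made by PCR and then transcribed. Each library underwent one round of in vitro selection in triplicate: annealing with a biotinylated primer, the partner subunit and triplets, frozen incubation at −7 °C, gel excision of extended constructs, streptavidin-bead capture and RT-PCR. Input and output libraries were Illumina-sequenced, and only genotypes with ≥10 input reads and ≥1 read per output were kept. Fitness is the logarithm, base 2, of genotype enrichment over wild-type enrichment, computed from inverse-variance-weighted replicate averages.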

First: GACCAAUCUGCCCUCAGAGCUCGAGAACAUCUUCGGAUGCAGAGGAGGCAGGCUUCGGUGGCGCGAUAGCACCAACGUCCUCAACCUCCAAUGCAUCCCACCACAUGAUGAUGCCUGAAGAGACUUGGUUUUUUG
Second: GACCAAUCUGCCCUCAGAGUUCGAGAACAUCUUCGGAUGCAGAGGAGGCAGGCUUCGGUGGCGCGAUAGCGCCAACGUCCUCAACCUCCAAUGCAUCCCACCACAUGAUGAUGCCUGAAGAGCCUUGGAUUUUUG
The “polymerase ribozyme fitness (log ratio)” value of the first is higher: -0.22 for the first, -2.67 for the second.

Going from GCCCAAUCUGCUCUCAGAGCUCGAGAACAUCUUCGGAUGCAUAGGAGGCAGGCUUCGGUGGCGCGAUAGCGCCAACGUCCUCAUCCUCCAAUGAAUCCCACCACAUGAUGAUGCCUGAAGAGCCUUGGAUUUUUG to GACCACUCUGUCCUCAGAGCUCGAGAACAUCUUCGGAUGCAGAGGAGGCAGGCUUCGGUGGCGCGAUAACGCCAACGUCCUCAACCUCCACUGCAUCCCACCACAUGAUGAUGCCUGAAGAGCCUUGGUUUUUUG, the “polymerase ribozyme fitness (log ratio)” value falls from -3.55 to -6.12.

Compared with GACCAAUCUGCCCUCAGAGCUCGAGAACAUCUUCGGAUGCAGAGGAAGCAGGCUUCGGUGGCGCGAUAGCGCCAACGUCCUCAACCUCCAAUGCAUCCCACCACAUGAUAAUGCCUGAAGAGCCUUGGUUUUUUG, GACCAAUCUGCCCUCAGAGCUCGAGAACAUCUUCGGAUGCAGUGGAGGCAGGCUUCGGUGGCGCGAUAGCGCCAACGUCCUCAACCUCCAAUGCAUCCCACCACAUGAUGAUGCUUGAAGAGCCUUGGUUUUUUG is lower in “polymerase ribozyme fitness (log ratio)” value: -1.67 for the first, -1.87 for the second.

Going from GACCAAUCUGCCCUCAGAGCUCGAGAACAUCUUCGGAUGCAGAGGAGGCAGGCUUCGGUGGCGCGAUAGCUCCAACGUCCUCAACCUCCAAUGCACCCCACCACAUGAUGAUGCCUGAAGAGCCUUGGUUUUUUG to GACCAAUCUGACCUCAGAGCUCGAGAACAUCUUCGGAUGCAGAGGAGGCAGGGUUCGGUCGCGCGAUAGCGCCAACCUCCUCAACGUCCAAUGCAUCCCACCACAUGAUGAUGCCUGAAGAGCCUUGGUUUUUUG, the “polymerase ribozyme fitness (log ratio)” value falls from -0.38 to -4.21.

First: GACCAAUCUGCCCUCAGAGGUCGAGAACAUCUUCGGAUGCAGAGGAGGCAGGCUUCGGUGGCGCGAUAGCGCCAACGUCCUCAACCUCCCAUGCUUCCCACCACAUGAUGAUGCCUGAAGAGCCUUGGUUUUUUG
Second: GACCAAUCUGCCCUCAGAGCUCGAGAACAUCUUCGGAUGCAGAGGAGGCAGGCUUCGGUGGCGCGAUAGCGCCAACGUCCUCAACCUCCACUGCAUCGCACCACAUGAUGAUACCUGAAGAGCCUUGGUUUUUUG
The “polymerase ribozyme fitness (log ratio)” value of the first is higher: -4.06 for the first, -5.51 for the second.

First: GACCAAUCUGCCAUCAGAGCUCGAGAACGUCUUCGGAUGCAGAGGAGGCAGGCUUCGGUGGCGCGAUAGCGCCAACGUCCUCAACCUCCAAUGCAUCCCACCACAUGAUGAUGCCUGAAGAGCCUUGGUUUUUUG
Second: GACCAAUCUGCCCUCAGAGCUCGAGAACAUCUUCGGAUGCACAGGAGGCAGGCUUCGGUGGCGCGAUAGCGCCAACGUCCUCAACCUCCAAUGCAUCCCACCACAUGAUCAUGCCUGAAGAGCCUUGGUUUUUUG
The “polymerase ribozyme fitness (log ratio)” value of the first is higher: -3.22 for the first, -6.03 for the second.

First: GACCAAUCUGCCCUCAGAGCUCGAGAACAUCUUCGGAUGCAGAGGAGGCAGGCUUCGGUGGCGCGAUAGCGCCAACCUCCUCCAUCUCCAAUGCAUCCCACCACAUGACGAUGGCUGAAGAGCCUUGGUUUUUUG
Second: GACCAAUCUGACCUCAGAGCUCGAGAACAUCUUCGGAUGCAGAGGAGGCAGGCUUCGGUGGCGCGAUAGCGCCAACGUCCUCAACCUCCAAUGCAUCCCACCACAUAAUGAUGCCUGAAGAGCCUUGGUUUUUUG
The “polymerase ribozyme fitness (log ratio)” value of the first is lower: -6.69 for the first, -5.12 for the second.

Going from GACCAAUCUGCCCUCAGAGCUCGAGAACAUCUUCGGAUGCAGAGGAGGCAGGCUGGGGUGGCGCGAUAGCGCCAACGUCCUCAACCUCCAAUGCAUCCCACCACAUGAUGAUGCCUGAAGAGCCUUGGUUUUUUG to GACCAAUCUGCCCUCUGAGCUCGAGAACAUCUUCGGAUGCAGAGGAGGCAGGCUUCGGUGGAGCGAUAGCGCCAACGUCCUCAACCUCCAAUGCAUCCCACCACCUGAUGAUGCCUGAAGAGCCUUGGUUUUUUG, the “polymerase ribozyme fitness (log ratio)” value falls from -1.53 to -4.73.

Compared with GACCAAUCUGGCCUCAGAGCUCGAGAACAUCUUCGGAUGCAGAGGAGGCAGGCUUCGGUGGCGCGAUAGCGCCAACGUCCUCAACCUCCAAUGCAUCCCACCACAUGAUGAUGCCUGAAGAGCCUUGGGUUUUUG, GACCAAUCUGCCCUCAGAGCUCGAGAACAUCUUCGGAUGCAGAGGAGGCAGUCUUCGGUAGCGCGAUAGCGCCAACGUCCUCAACCUCCAAUGCAUCCCACCAUAUGAUGAUGCGUGAAGCGCCUUGGUUUUUUG is lower in “polymerase ribozyme fitness (log ratio)” value: -1.77 for the first, -4.03 for the second.

Going from GACCAAUCUGCCCUCAGAGCUCGAGAACAUCUUCGGAUGCAGAGGAGGCAGGGUUCGGUGGCGCGAUAGCGCCAACGUCCUCAACCUCCAAUGCAUCCCACCACAUGAUCAUGCCUGAAGAGCCUUGGUUUUUUG to GACAAAUCUGCCCUCAGAGCUCGAGAACGUGUUCGGAUGCAGAGGAGGCAGGCUUCGGUGGCGCGAUAGCGCCAACGUCCUCAACCUCCAAUGCAUCCCACCACGUGUUGCUGCGUGAAGAGACUUGGUUUUUUG, the “polymerase ribozyme fitness (log ratio)” value falls from -4.65 to -6.34.

With GAUCAAUCUGCCCUCAGAGCUCGAGAACAUCUUCGGAUGCAGAGGAGGCAGGCAUCGGUGGCGCGAUAGCGCCAACGUCCUCAACCUCCAUUGCAUCCCACCACAUGAUGAUGCCUGAAGAGCCUUGGUUUUUUG the “polymerase ribozyme fitness (log ratio)” value was -2.48.
